Non-standard residues stand in square brackets, D forms with d. No end group written: not given here. pGlu = O=C1CC[C@@H](C(=O)O)N1
Assays:
[1] = target: T1, mature Rhizomucor miehei lipase (Rhizomucor miehei, UniProt P19515 95-363); experiment: fluorescence polarisation; 0.9 uM A488-labelled peptide mixed with mature RmL at 0.0002-10 uM, in duplicate; 50 mM HEPES pH 7.5, 100 mM NaCl, 1 mM CaCl2; 30 min at room temperature; Langmuir 1:1 fit; details: both partners purified
T1 sequence (looked up): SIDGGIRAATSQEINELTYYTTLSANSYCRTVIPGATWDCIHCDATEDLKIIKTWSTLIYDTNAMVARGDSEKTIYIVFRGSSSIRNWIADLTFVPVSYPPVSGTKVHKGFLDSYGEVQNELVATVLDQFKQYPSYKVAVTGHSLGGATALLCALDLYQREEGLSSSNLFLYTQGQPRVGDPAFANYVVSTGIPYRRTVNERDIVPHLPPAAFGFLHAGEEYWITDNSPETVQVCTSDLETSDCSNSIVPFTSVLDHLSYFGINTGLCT

[2] = Zymogram of native PAGE (lipase activity on olive oil plate); assay type: biochemical; details: native PAGE gel placed on agarose plate: 50 mM HEPES (pH 7), 0.625% polyvinyl alcohol, 1.9% (v/v) olive oil, 0.05% brilliant green; Figure 8C
Description: The compositions for native PAGE were as follows. Resolving gel: 12% acrylamide-bis-acrylamide; 0.4 M Tris (pH 8.8), 0.1% APS, 0.04% TEMED. Stacking gel: 5.1% acrylamide-bis-acrylamide; 0.25 M Tris (pH 6.8), 0.1% APS, 0.1% TEMED. Loading dye: 0.06 M Tris (pH 6.8), 0.01% bromophenol blue, 10% glycerol. Running buffer: 3 g/L Tris base, 14.4 g/L glycine. Gel (B) is stained with brilliant blue. Zymogram: After electrophoresis, the native PAGE was placed on an agarose/brilliant blue plate (4% Litex HSB agarose protein grade, 50 mM HEPES (pH 7), 0.625% polyvinyl alcohol, 1.9% (v/v) olive oil, and 0.05% brilliant green (Sigma)).

[3] = system: Rhizomucor miehei lipase; details: activity-related mutation in propeptide; cited from earlier work
Description: The buried surface area between the propeptide and the mature enzyme is ∼1771.2 Å^2 (analyzed using PISA,[23] corresponding to a strong protein–protein interaction).[24] The most significant interactions between the propeptide and mature enzyme from the PISA analysis are given in Table S1 (Supporting Information). One of these interactions involves Leu81, which is one of the activity-related mutations identified in ref ([17]) and is a part of the hydrophobic cluster at the ...

[4] = target: T1, mature Rhizomucor miehei lipase; experiment: crystal structure; wild-type ProRmL sample, 10 mg/mL; 30% PEG8K, 0.1 M Na-cacodylate pH 6.5, 0.2 M ammonium sulfate; 293 K; molecular replacement with 3TGL; details: both partners purified
[5] = target: T2, mature RmL (Rhizomucor miehei lipase) (Rhizomucor miehei, UniProt P19515); experiment: GLAD lipase assay: inhibition of mature RmL by propeptide; assay type: biochemical; details: isolated propeptide; RmL–propeptide molar ratio 1:64, 15 min incubation, 0.2 M HEPES, 1 mM CaCl2, 10 ppm Triton X-100, pH 8.5; substrate olive oil/4-methylumbelliferyl oleate on cellulose, detergent model B; room temperature; fluorescence 365/445 nm; Figure 4a
T2 construct: mature RmL; 95–363; 29,537.7; 29,538.2; made in house; host or cells: Aspergillus oryzae
T2 sequence (P19515 whole entry, looked up): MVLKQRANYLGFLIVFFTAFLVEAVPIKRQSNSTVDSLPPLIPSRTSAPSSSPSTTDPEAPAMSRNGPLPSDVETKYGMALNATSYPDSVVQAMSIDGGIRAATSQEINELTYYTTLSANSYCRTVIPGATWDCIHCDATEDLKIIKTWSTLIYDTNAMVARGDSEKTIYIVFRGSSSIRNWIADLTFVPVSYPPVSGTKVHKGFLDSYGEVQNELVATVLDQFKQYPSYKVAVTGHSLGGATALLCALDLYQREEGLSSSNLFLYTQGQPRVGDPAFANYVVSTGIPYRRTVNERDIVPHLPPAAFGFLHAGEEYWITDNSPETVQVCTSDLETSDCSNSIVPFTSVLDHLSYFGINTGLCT
Experimental: Inhibition of hydrolytic activity was determined by using the industrially relevant GLAD assay, measuring the release of 4-methylumbelliferone (4-MU) by purified mature RmL incubated with and without a propeptide (RmL–propeptide incubated at a molar ratio of 1:64) for 15 min in 0.2 M HEPES, 1 mM CaCl2, and 10 ppm Triton X-100 (adjusted to pH 8.5). As a substrate, we used cellulose cotton linters, Avicel PH-101 (Sigma-Aldrich, 11365), uniformly coated with a 4.5:1 mixture of olive oil (Sigma-Aldrich, O-1514) and 4-methylumbelliferyl oleate (oleic acid 4-methylumbelliferyl ester (Sigma-Aldrich, 75164): 4 mg/mL in n-hexane (Sigma-Aldrich, 15671)). The coated cellulose fibers were suspended in 0.2 M HEPES, 3 mM CaCl2, 0.5 mM MgCl2, and 10 ppm Triton X-100 mixed with 3.3 g/L detergent solution using detergent model B (model B composition: 1% (w/w) NaOH, 7.2% (w/w) LAS, 3% (w/w) SLES, 5.5% (w/w) soy and coco fatty acids, 6.6% (w/w) AEO, 3.33% (w/w) triethanol amine, 2% (w/w) Na-citrate, 0.5% (w/w) DTMPA, 6% (w/w) MPG, 3% EtOH, 1.7% (w/w) glycerol, 1% (w/w) sodium formate, 0.1% (w/w) PCA; adjusted to pH 8.5) and RmL −/+ propeptide. The enzyme activity at room temperature was followed by measuring the fluorescence (kinetic mode) every 30 s at an excitation wavelength of 365 nm and emission wavelength of 445 nm from 1 to 6 min. […]

SDVETKYGMALNATSYC(A488) [propeptide fragment SDVETKYGMALNATSYC-A488]
Kd [1]: 200 nM

B1: mature RmL: the mature wild-type enzyme without propeptide, residues 95–363 (protein)
chain: SIDGGIRAATSQEINELTYYTTLSANSYCRTVIPGATWDCIHCDATEDLKIIKTWSTLIYDTNAMVARGDSEKTIYIVFRGSSSIRNWIADLTFVPVSYPPVSGTKVHKGFLDSYGEVQNELVATVLDQFKQYPSYKVAVTGHSLGGATALLCALDLYQREEGLSSSNLFLYTQGQPRVGDPAFANYVVSTGIPYRRTVNERDIVPHLPPAAFGFLHAGEEYWITDNSPETVQVCTSDLETSDCSNSIVPFTSVLDHLSYFGINTGLCT
lipase activity in zymogram at the band corresponding to mature RmL [2]: much stronger in mature RmL than in wild-type ProRmL

B2: L81V: activity-related propeptide mutation L81V of R. miehei lipase identified in ref 17 (protein, UniProt P19515 25-363, looked up, variant L81V)
pro-form: VPIKRQSNSTVDSLPPLIPSRTSAPSSSPSTTDPEAPAMSRNGPLPSDVETKYGMAVNATSYPDSVVQAMSIDGGIRAATSQEINELTYYTTLSANSYCRTVIPGATWDCIHCDATEDLKIIKTWSTLIYDTNAMVARGDSEKTIYIVFRGSSSIRNWIADLTFVPVSYPPVSGTKVHKGFLDSYGEVQNELVATVLDQFKQYPSYKVAVTGHSLGGATALLCALDLYQREEGLSSSNLFLYTQGQPRVGDPAFANYVVSTGIPYRRTVNERDIVPHLPPAAFGFLHAGEEYWITDNSPETVQVCTSDLETSDCSNSIVPFTSVLDHLSYFGINTGLCT
modifications: pro-form
activity of the mutant [3]: increased activity

B3: Rhizomucor miehei lipase propeptide (cleaved propeptide) (domain or fragment, UniProt P19515 30-94, looked up)
chain: [pGlu]SNSTVDSLPPLIPSRTSAPSSSPSTTDPEAPAMSRNGPLPSDVETKYGMALNATSYPDSVVQAM
modifications: also: N-glycosylation (GlcNAc after EndoH), site not given here, hexose at O-glycosylation site, site not given here
binding result [4]: binds

B4: propeptide: Cleaved propeptide, separated from the mature enzyme, residues 30–94 (protein)
chain: [pGlu]SNSTVDSLPPLIPSRTSAPSSSPSTTDPEAPAMSRNGPLPSDVETKYGMALNATSYPDSVVQAM
modifications: also: N-glycosylation (GlcNAc after EndoH), site not given here, hexose at O-glycosylation site, site not given here
inhibition of lipase activity [5]: clear inhibition of activity

— paper PMC6648591 (ACS Omega, 2019)
